Target: mouse MOCCI^FLAG (Modulator of cytochrome C oxidase during Inflammation, FLAG-tagged) (mouse)
Test: co-IP; anti-FLAG M2 beads on total mouse heart mitochondria (AAV-MOCCI; AAV-GFP as negative control) solubilised with 1% digitonin in IP buffer (50 mM HEPES-KOH, 150 mM NaCl, 1 mM EDTA, pH 7.4), 4 °C; elution with 3X FLAG peptide; immunoblotting

MTCO-1, the catalytic subunit of CIV (cytochrome C oxidase) (from UniProt P00397 1-514) (natural protein)
enrichment in the anti-FLAG immunoprecipitate: 231%
